Experimental data taken from US20200024322A1 (Eli Lilly, published 2020).
Numbered stars: 1 amine (or outer) side, 2 acyl side, 3 side chain; on linkers, the order of the positions; unused ones are H or OH. Square brackets hold non-standard residues; d marks the D form. Side chains are listed from the residue outwards. Ends that are not written are not given here. * marks the point of attachment. C18 diacid = O=C(O)CCCCCCCCCCCCCCCCC(=O)*; γGlu = O=C(O)[C@H](CCC(=O)[*:2])N[*:1]; AEEA = NCCOCCOCC(=O)O; Aib = CC(C)(N)C(=O)O

T1: human GIP receptor (human, UniProt P48546 22-466)
T1 construct: whole, on cells; also called hGIPR; hGIP-R
T1 sequence (looked up): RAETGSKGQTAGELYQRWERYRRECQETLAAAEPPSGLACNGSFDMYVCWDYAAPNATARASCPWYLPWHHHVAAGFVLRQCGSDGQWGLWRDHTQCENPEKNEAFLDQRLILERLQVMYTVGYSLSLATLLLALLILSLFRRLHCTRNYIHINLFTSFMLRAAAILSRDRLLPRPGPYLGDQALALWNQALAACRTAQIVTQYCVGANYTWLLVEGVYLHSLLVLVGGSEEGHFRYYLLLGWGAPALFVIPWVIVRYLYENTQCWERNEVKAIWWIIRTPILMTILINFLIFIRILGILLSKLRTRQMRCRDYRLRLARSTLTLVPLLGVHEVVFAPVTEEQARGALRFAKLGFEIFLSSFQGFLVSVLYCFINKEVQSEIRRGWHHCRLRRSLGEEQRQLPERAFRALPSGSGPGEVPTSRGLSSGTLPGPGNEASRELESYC


Legend:
[1] = target: T2, human glucagon receptor (human, UniProt P47871 26-477); experiment: [125I]-Gcg competition SPA, hGcgR membranes
T2 construct: whole, on cells; also called hGcgR; GcgR
T2 sequence (P47871 26-477): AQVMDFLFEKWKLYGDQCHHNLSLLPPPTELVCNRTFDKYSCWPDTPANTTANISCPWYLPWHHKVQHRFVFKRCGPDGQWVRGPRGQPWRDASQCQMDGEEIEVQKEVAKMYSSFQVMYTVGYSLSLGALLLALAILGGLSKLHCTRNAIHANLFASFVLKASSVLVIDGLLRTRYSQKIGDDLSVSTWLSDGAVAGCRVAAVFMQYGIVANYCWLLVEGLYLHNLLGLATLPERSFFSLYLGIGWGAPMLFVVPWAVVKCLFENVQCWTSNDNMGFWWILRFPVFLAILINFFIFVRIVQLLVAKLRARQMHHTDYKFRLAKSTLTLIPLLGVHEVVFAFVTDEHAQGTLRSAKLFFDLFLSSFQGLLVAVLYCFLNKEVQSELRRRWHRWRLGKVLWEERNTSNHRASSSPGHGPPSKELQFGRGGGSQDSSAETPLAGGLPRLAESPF

[2] = target: T3, human GLP-1 receptor (human, UniProt P43220 24-463); experiment: [125I]-GLP-1 competition SPA, hGLP-1R membranes
T3 construct: whole, on cells; also called hGLP-1R; hGLP1R
Outline: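 Kᵢ values are geometric means (SEM) over replicates run on separate days, derived from IC₅₀ of four-parameter curve fits. Buffer: HEPES 25 mM pH 7.4 with CaCl₂ 2.5 mM, MgCl₂ 1 mM, bacitracin 0.1%, TWEEN-20 0.003%, EDTA-free protease inhibitors.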

[3] = target: T1, human GIP receptor; experiment: [125I]-GIP competition SPA, hGIPR membranes

Row | Binder | Ki [1] | Ki [2] | Ki [3]
1 | YXEGTXTSDXSIXLDXKAQXEFIXXLIEGG (Aib2; αMeF(2F)6; 4Pal10; αMeL13; Orn16; K17((2-[2-(2-Amino-ethoxy)-ethoxy]-acetyl)2-(γ-Glu)-CO-(CH2)16-CO2H); Aib20; D-Glu24; αMeY25; C-terminal NH2) [Example 265] | 567 nM | 0.537 nM | 0.0224 nM
2 | YXEGTFTSDYSILLDKKAQQAFIEYLIEGGPSSGAPPPS (Aib2; K17((2-[2-(2-Amino-ethoxy)-ethoxy]-acetyl)2-(γ-Glu)-CO-(CH2)18-CO2H); C-terminal NH2) [Example 254] | 148 nM | 2.58 nM | 0.108 nM
3 | YXEGTFTSDYSILLDKKAQHAFIEYLIEGGPSSGAPPPS (Aib2; K17((2-[2-(2-Amino-ethoxy)-ethoxy]-acetyl)2-(γ-Glu)-CO-(CH2)18-CO2H); C-terminal NH2) [Example 255] | 257 nM | 2.58 nM | 0.0772 nM
4 | YXEGTXTSDLSIXLDXKAQXTFIXXLIEGGPSSGAPPPS (Aib2; αMeF(2F)6; αMeL13; Orn16; K17((2-[2-(2-Amino-ethoxy)-ethoxy]-acetyl)2-(γ-Glu)-CO-(CH2)16-CO2H); Aib20; D-Glu24; αMeY25; C-terminal NH2) [Example 243] | 145 nM | 0.67 nM | 0.0325 nM
5 | YXEGTXTSDYSIXLDXKAQXEFIXYLIEGGPSSGAPPPS (Aib2; αMeF(2F)6; Aib13; Orn16; K17((2-[2-(2-Amino-ethoxy)-ethoxy]-acetyl)2-(γ-Glu)-CO-(CH2)18-CO2H); Aib20; D-Glu24; C-terminal NH2) [Example 250] | 198 nM | 1.72 nM | 0.0171 nM
6 | YXEGTXTSDXSIXLDXKAQXAFIXXLIEGGPSSGAPPPS (Aib2; αMeF(2F)6; 4Pal10; αMeL13; Orn16; K17((2-[2-(2-Amino-ethoxy)-ethoxy]-acetyl)2-(γ-Glu)-CO-(CH2)16-CO2H); Aib20; D-Glu24; αMeY25; C-terminal NH2) [Example 240] | 204 nM | 0.552 nM | 0.0284 nM
7 | YXEGTXTSDXSIXLDXKAQXAFIXXLIEGGPSSGAPPPS (Aib2; αMeF(2F)6; 4Pal10; αMeL13; Orn16; K17((2-[2-(2-Amino-ethoxy)-ethoxy]-acetyl)2-(εK)-CO-(CH2)18-CO2H); Aib20; D-Glu24; αMeY25; C-terminal NH2) [Example 251] | 21.2 nM | 1.09 nM | 0.0249 nM
8 | YXEGTXTSDXSIXLDXKAQXAFIXXLIAGGPSSGAPPPS (Aib2; αMeF(2F)6; 4Pal10; αMeL13; Orn16; K17((2-[2-(2-Amino-ethoxy)-ethoxy]-acetyl)2-(εK)-CO-(CH2)18-CO2H); Aib20; D-Glu24; αMeY25; C-terminal NH2) [Example 252] | 26 nM | 0.383 nM | 0.00971 nM
9 | YXEGTXTSDXSIXLDXKAQXTFIXXLIEGGPSSGAPPPS (Aib2; αMeF(2F)6; 4Pal10; αMeL13; Orn16; K17((2-[2-(2-Amino-ethoxy)-ethoxy]-acetyl)2-(γ-Glu)-CO-(CH2)16-CO2H); Aib20; D-Glu24; αMeY25; C-terminal NH2) [Example 239] | 596 nM | 2.71 nM | 0.101 nM
10 | YXEGTXTSDLSIXLDXKAQXAFIXXLIEGGPSSGAPPPS (Aib2; αMeF(2F)6; αMeL13; Orn16; K17((2-[2-(2-Amino-ethoxy)-ethoxy]-acetyl)2-(γ-Glu)-CO-(CH2)16-CO2H); Aib20; D-Glu24; αMeY25; C-terminal NH2) [Example 244] | 87.8 nM | 0.82 nM | 0.0308 nM
11 | YXEGTXTSDXSIXLDXKAQXEFIXXLIEGGPSSG (Aib2; αMeF(2F)6; 4Pal10; αMeL13; Orn16; K17((2-[2-(2-Amino-ethoxy)-ethoxy]-acetyl)2-(γ-Glu)-CO-(CH2)16-CO2H); Aib20; D-Glu24; αMeY25; C-terminal NH2) [Example 264] | 388 nM | 0.412 nM | 0.015 nM
12 | Y[Aib]EGTFTSDYSILLDKK([AEEA-AEEA-γGlu-C18 diacid])AQ[Aib]AFIEYLIEGGPSSG-NH2 (N-terminus assumed; SMILES CC[C@H](C)[C@H](NC(=O)[C@H](CC(C)C)NC(=O)[C@H](Cc1ccc(O)cc1)NC(=O)[C@H](CCC(=O)O)NC(=O)[C@@H](NC(=O)[C@H](Cc1ccccc1)NC(=O)[C@H](C)NC(=O)C(C)(C)NC(=O)[C@H](CCC(N)=O)NC(=O)[C@H](C)NC(=O)[C@H](CCCCNC(=O)COCCOCCNC(=O)COCCOCCNC(=O)CC[C@H](NC(=O)CCCCCCCCCCCCCCCCC(=O)O)C(=O)O)NC(=O)[C@H](CCCCN)NC(=O)[C@H](CC(=O)O)NC(=O)[C@H](CC(C)C)NC(=O)[C@H](CC(C)C)NC(=O)[C@@H](NC(=O)[C@H](CO)NC(=O)[C@H](Cc1ccc(O)cc1)NC(=O)[C@H](CC(=O)O)NC(=O)[C@H](CO)NC(=O)[C@@H](NC(=O)[C@H](Cc1ccccc1)NC(=O)[C@@H](NC(=O)CNC(=O)[C@H](CCC(=O)O)NC(=O)C(C)(C)NC(=O)[C@@H](N)Cc1ccc(O)cc1)[C@@H](C)O)[C@@H](C)O)[C@@H](C)CC)[C@@H](C)CC)C(=O)N[C@@H](CCC(=O)O)C(=O)NCC(=O)NCC(=O)N1CCC[C@H]1C(=O)N[C@@H](CO)C(=O)N[C@@H](CO)C(=O)NCC(N)=O) [Example 266] | 193 nM | 2.01 nM | 0.0666 nM
